Target: PEDV nsp15 (H241A) (PEDV FJZZ strain)
Assay: AUC

PEDV nsp15 (H241A) (enzyme)
percentage as hexamer: 81.2%
